Measured values published in paper PMC10896721.

Tests used:
[1] = molecular target: human GLP-1R (glucagon-like peptide-1 receptor) (human) (UniProt P43220)
mouse GLP-1R (mouse) = mouse GLP-1R (mouse) (UniProt O35659)
[2] = molecular target: cynomolgus monkey GLP-1R (cynomolgus monkey)
[3] = molecular target: T1, human GIPR (glucose-dependent insulinotropic polypeptide receptor) (human) (UniProt P48546)
T1 sequence: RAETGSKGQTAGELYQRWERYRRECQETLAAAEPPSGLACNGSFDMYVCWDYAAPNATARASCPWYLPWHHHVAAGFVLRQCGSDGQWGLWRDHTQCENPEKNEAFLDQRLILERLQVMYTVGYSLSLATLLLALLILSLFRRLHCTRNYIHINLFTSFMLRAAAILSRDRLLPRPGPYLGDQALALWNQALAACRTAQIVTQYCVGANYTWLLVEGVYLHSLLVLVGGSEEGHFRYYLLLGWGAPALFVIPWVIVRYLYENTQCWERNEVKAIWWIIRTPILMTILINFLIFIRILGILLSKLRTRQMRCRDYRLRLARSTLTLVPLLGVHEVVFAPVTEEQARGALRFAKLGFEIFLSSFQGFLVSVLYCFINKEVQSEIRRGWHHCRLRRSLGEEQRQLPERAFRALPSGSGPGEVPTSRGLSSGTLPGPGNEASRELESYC

Sequence of AMG 133 (maridebart cafraglutide) (VH): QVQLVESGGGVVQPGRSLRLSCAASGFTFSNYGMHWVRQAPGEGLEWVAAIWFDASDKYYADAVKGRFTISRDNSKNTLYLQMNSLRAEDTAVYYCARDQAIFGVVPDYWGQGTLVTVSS
Sequence of AMG 133 (maridebart cafraglutide) (VL): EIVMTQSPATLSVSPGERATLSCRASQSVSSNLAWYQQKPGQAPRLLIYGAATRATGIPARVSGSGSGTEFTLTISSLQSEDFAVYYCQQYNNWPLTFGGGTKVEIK
Sequence of UniProt O35659 (O35659 22-463): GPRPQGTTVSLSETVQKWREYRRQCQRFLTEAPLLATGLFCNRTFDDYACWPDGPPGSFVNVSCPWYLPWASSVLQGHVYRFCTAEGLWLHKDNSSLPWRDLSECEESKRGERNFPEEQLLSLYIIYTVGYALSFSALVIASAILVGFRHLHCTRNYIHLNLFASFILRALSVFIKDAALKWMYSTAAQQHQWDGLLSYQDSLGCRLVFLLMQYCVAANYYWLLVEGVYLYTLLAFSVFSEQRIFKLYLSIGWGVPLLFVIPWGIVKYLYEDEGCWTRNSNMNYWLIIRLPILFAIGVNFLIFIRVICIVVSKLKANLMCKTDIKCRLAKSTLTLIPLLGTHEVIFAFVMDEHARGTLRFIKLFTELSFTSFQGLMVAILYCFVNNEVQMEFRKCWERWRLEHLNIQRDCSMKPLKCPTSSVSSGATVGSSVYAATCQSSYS
Sequence of UniProt P43220 (P43220 24-463): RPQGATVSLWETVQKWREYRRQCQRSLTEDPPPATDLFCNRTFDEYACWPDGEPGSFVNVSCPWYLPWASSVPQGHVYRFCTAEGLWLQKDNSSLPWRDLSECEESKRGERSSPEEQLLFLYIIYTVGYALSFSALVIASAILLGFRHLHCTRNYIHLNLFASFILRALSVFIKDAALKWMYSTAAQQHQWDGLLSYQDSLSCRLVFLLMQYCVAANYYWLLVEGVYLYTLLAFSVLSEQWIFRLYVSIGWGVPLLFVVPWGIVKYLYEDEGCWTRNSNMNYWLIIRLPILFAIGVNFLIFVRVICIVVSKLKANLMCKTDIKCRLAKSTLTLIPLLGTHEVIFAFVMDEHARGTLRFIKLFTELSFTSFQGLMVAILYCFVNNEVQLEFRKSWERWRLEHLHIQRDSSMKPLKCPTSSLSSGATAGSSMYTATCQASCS

Row | Substance | EC50 of cAMP accumulation in CHO-K1 cells expressing human GLP-1R [1] [nM] | EC50 of cAMP accumulation in CHO-K1 cells expressing mouse GLP-1R (mouse GLP-1R (mouse)) [nM] | EC50 of cAMP accumulation in CHO-AM1D cells expressing cynomolgus monkey GLP-1R [2] [nM] | EC50 of cAMP accumulation in HEK 293T cells expressing human GIPR [3] [nM]
1 | AMG 133 (maridebart cafraglutide) | 0.0244 | 0.123 | 0.0057 | 
2 | Native GIP (glucose-dependent insulinotropic polypeptide) (from UniProt P09681 52-93) (ligand) |  |  |  | 0.0066
